Reference: patent US20080194485

Target: prekallikrein (PK), P03952
Sequence (P03952 20-638): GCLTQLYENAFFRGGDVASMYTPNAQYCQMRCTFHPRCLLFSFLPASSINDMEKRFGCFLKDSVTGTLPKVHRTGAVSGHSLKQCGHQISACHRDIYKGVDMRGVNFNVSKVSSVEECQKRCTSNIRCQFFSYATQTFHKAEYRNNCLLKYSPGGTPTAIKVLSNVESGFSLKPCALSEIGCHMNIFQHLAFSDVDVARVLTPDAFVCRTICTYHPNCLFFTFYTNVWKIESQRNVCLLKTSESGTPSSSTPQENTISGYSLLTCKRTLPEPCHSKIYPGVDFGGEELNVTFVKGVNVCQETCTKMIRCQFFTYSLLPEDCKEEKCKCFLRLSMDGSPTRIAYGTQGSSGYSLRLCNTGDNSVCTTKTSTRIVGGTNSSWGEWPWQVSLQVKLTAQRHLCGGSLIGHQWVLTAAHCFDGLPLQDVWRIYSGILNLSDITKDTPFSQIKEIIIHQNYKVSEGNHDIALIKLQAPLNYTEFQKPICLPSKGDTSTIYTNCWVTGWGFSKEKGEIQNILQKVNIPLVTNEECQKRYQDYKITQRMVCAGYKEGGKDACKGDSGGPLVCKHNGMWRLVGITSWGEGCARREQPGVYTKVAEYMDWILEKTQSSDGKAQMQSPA

B1: recombinant PRCP51 (recombinant human prolylcarboxypeptidase, predicted molecular mass 51 kDa) (protein)
chain: KNYSVLYFQQKVDHFGFNTVKTFNQRYLVADKYWKKNGGSILFYTGNEGDIIWFCNNTGFMWDVAEELKAMLVFAEHRYYGESLPFGDNSFKDSRHLNFLTSEQALADFAELIKHLKRTIPGAENQPVIAIGGSYGGMLAAWFRMKYPHMVVGALAASAPIWQFEDLVPCGVFMKIVTTDFRKSGPHCSESIHRSWDAINRLSNTGSGLQWLTGALHLCSPLTSQDIQHLKDWISETWVNLAMVDYPYASNFLQPLPAWPIKVVCQYLKNPNVSDSLLLQNIFQALNVYYNYSGQVKCLNISETATSSLGTLGWSYQACTEVVMPFCTNGVDDMFEPHSWNLKELSDDCFQQWGVRPRPSWITTMYGGKNISSHTNIVFSNGELDPWSGGGVTKDITDTLVAVTISEGAHHLDLRTKNALDPMSVLLARSLEVRHMKNWIRDFYDSAGKQH
  Km of prekallikrein activation: Recombinant PRCP51 activates PK with a Km and Vmax of 9 nM and 0.2 min^-1, respectively
  Vmax of prekallikrein activation: Recombinant PRCP51 activates PK with a Km and Vmax of 9 nM and 0.2 min^-1, respectively
